Publication PMC4141790, “RecA Protein Plays a Role in the Chemotactic Response and Chemoreceptor Clustering of Salmonella enterica” (PLoS ONE, 2014)

B1: RecA protein fused to a β-galactosidase truncation (ΔαRecA / ΔωRecA) (natural protein)
chain: MAIDENKQKALAAALGQIEKQFGKGSIMRLGEDRSMDVETISTGSLSLDIALGAGGLPMGRIVEIYGPESSGKTTLTLQVIAAAQREGKTCAFIDAEHALDPVYARKLGVDIDNLLCSQPDTGEQALEICDALARSGAVDVIVVDSVAALTPKAEIEGEIGDSHMGLAARMMSQAMRKLAGNLKQSNTLLIFINQIRMKIGVMFGNPETTTGGNALKFYASVRLDIRRIGAVKEGDNVVGSETRVKVVKNKIAAPFKQAEFQILYGEGINFYGELVDLGVKEKLIEKAGAWYSYNGEKIGQGKANATTWLKENPATAKEIEKRVRELLLSNQNATPDFAVDDSEGVAETNEDF
notes: RecA, S. enterica sv; Typhimurium; the recA gene was PCR-amplified and cloned (SphI/BamHI) into both pB2HΔα and pB2HΔω; One molecule for both fusions (Δα and Δω), since each protein stood in both positions of the two-hybrid system; also called Δα-recA fusion; Δω-recA fusion; source: two-hybrid fusion, co-expressed in E. coli MC1061 (pB2HΔα / pB2HΔω derivatives, 20 nM IPTG)
B2: CheW coupling protein fused to a β-galactosidase truncation (ΔαCheW / ΔωCheW) (natural protein)
chain: MTGMSNVSKLAGEPSGQEFLVFTLGNEEYGIDILKVQEIRGYDQVTRIANTPAFIKGVTNLRGVIVPIVDLRVKFCEGDVEYDDNTVVIVLNLGQRVVGIVVDGVSDVLSLTAEQIRPAPEFAVTLSTEYLTGLGALGERMLILVNIEKLLNSEEMALLDIAASHVA
notes: CheW coupling protein, S. enterica sv; Typhimurium; the cheW gene was PCR-amplified and cloned (SphI/BamHI) into both pB2HΔα and pB2HΔω; One molecule for both fusions (Δα and Δω), since each protein stood in both positions of the two-hybrid system; also called Δα-cheW fusion; Δω-cheW fusion; source: two-hybrid fusion, co-expressed in E. coli MC1061 (pB2HΔα / pB2HΔω derivatives, 20 nM IPTG)

Assays:
[1] = target: B2; assay: two-hybrid; β-galactosidase Δα/Δω complementation (pB2HΔα/pB2HΔω) in E. coli MC1061; 37°C, samples 5 h after 20 nM IPTG; activity relative to the non-interaction control strain expressing ΔαAmyA and ΔωDnaE; conditions: partners not purified
[2] = target: B1; assay: as above; conditions: partners not purified

| Binder | relative β-galactosidase expression [1] | relative β-galactosidase expression [2] |
| --- | --- | --- |
| B1 | > 7 relative to the non-interaction control strain |  |
| B2 |  | > 7 relative to the non-interaction control strain |
